Assay results as given in patent US20250163166A1 (REGENECORE BIOTECH, published 2025).

How the values were obtained:
human FCγRIIIa receptor [1] = molecular target: T1, human FCγRIIIa receptor (human, UniProt P08637 17-208, limits assumed); test: BLI (Octet 96), antibody loaded on sensor, FCγRIIIa 200 nM and 2-fold dilutions in solution
T1 construct: Used in solution as the 'antigen' in BLI; also called FcγIIIa receptor
Protocol: (§1) (3) Preparation of antigen working solution: 200 nM antigen (FCγRIIIa) in SD buffer was first prepared at and then serially diluted in 2 folds to prepare a total of 5 concentration gradients, in addition to which a zero concentration was prepared.
(§2) (11) Data analysis: related constants, such as KD, Kon, Koff, X2, Full R2 and the like were calculated in Data Analysis software.
(§3) In the examples of the present application, the modified bispecific antibody was subjected to BLI test to determine the affinity of the modified bispecific antibody to human FCγRIIIa.

human FCγRIIIa receptor [2] = molecular target: T1, human FCγRIIIa receptor; test: BLI; Ratio against the hIgG (hIgG1) control, fits KD(hIgG)/KD(sample)
Protocol: as §1, §2, §3

T1 sequence (P08637 17-208 limits assumed): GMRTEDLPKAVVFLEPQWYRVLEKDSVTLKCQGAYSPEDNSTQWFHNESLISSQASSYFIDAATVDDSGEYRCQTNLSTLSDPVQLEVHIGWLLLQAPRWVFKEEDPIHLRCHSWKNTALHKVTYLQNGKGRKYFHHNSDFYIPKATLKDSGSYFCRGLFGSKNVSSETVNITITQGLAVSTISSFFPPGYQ

B1: bispecific antibody BM#1 against CD33 and CD123 (bispecific antibody, human IgG1)
chain 1: QVQLVESGGGSVQAGGSLRLSCAASGYTYSSTCIGWFRQAPGKDREGVAFAYTGGGVTYADSVKGRFTISQDNAKNTVHLIMNSLKPEDTAMYYCAAKTRGGCWAAAAFYNYWGQGTQVTVSSEPKSCDKTHTCPPCPAPELLGGPSVFLFPPKPKDTLMISRTPEVTCVVVDVSHEDPEVKFNWYVDGVEVHNAKTKPREEQYNSTYRVVSVLTVLHQDWLNGKEYKCKVSNKALPAPIEKTISKAKGQPREPQVYTLPPSRDELTKNQVSLWCLVKGFYPSDIAVEWESNGQPENNYKTTPPVLVSDGSFTLYSKLTVDKSRWQQGNVFSCSVMHEALHNHYTQKSLSLSPGK
chain 2: not shown
notes: VHH-Fc heterodimer
B1 was tested, and the Kd (human FCγRIIIa receptor [1]) was 68.9 nM and the Ratio (human FCγRIIIa receptor [2]) was 1.29.

B2: bispecific antibody BM#4 against CD33 and CD123 (bispecific antibody, human IgG1)
chain 1: QVQLVESGGGSVQAGGSLRLSCAASGYTYSSTCIGWFRQAPGKDREGVAFAYTGGGVTYADSVKGRFTISQDNAKNTVHLIMNSLKPEDTAMYYCAAKTRGGCWAAAAFYNYWGQGTQVTVSSEPKSCDKTHTCPPCPAPELLGGPSVFLFPPKPKDTLMISRTPEVTCVVVDVSHEDPEVKFNWYVDGVEVHNAKTKPREEQYNSTYRVVSVLTVLHQDWLNGKEYKCKVSNKALPAPIEKTISKAKGQPREPQVYTLPPSRDKLTKNQVSLVCLVKGFYPSDIAVEWESNGQPENNYKTTPPVLKSDGSFFLYSKLTVDKSRWQQGNVFSCSVMHEALHNHYTQKSLSLSPGK
chain 2: QVQLVESGGGSVQAGGSLKLSCAASRFIFSRCGMGWFRQAPGKERELVSTISGDGTTFYADSVKGRFTISQHNAATTLYLQMNSLKLEDTAVYYCAADCYNRKYWGQGTQVTVSSEPKSCDKTHTCPPCPAPELLGGPSVFLFPPKPKDTLMISRTPEVTCVVVDVSHEDPEVKFNWYVDGVEVHNAKTKPREEQYNSTYRVVSVLTVLHQDWLNGKEYKCKVSNKALPAPIEKTISKAKGQPREPQVYTLPPSRDELTKNQVSLTCLVEGFYPSDIAVEWESNGQPENNYKTTPPVLDSDGSFFLASDLTVDKSRWQQGNVFSCSVMHEALHNHYTQKSLSLSPGK
notes: VHH-Fc heterodimer; also called BM-RT2831-#4
For B2, the Kd (human FCγRIIIa receptor [1]) was 74.2 nM and the Ratio (human FCγRIIIa receptor [2]) was 1.19.

B3: bispecific antibody BM#3 against CD33 and CD123 (bispecific antibody, human IgG1)
chain 1: QVQLVESGGGSVQAGGSLRLSCAASGYTYSSTCIGWFRQAPGKDREGVAFAYTGGGVTYADSVKGRFTISQDNAKNTVHLIMNSLKPEDTAMYYCAAKTRGGCWAAAAFYNYWGQGTQVTVSSEPKSCDKTHTCPPCPAPELLGGPSVFLFPPKPKDTLMISRTPEVTCVVVDVSHEDPEVKFNWYVDGVEVHNAKTKPREEQYNSTYRVVSVLTVLHQDWLNGKEYKCKVSNKALPAPIEKTISKAKGQPREPQVYTLPPSRDELTKNQVSLVCLVKGFYPSDIAVEWESNGQPENNYKTTPPVLVSDGSFTLYSKLTVDKSRWQQGNVFSCSVMHEALHNHYTQKSLSLSPGK
chain 2: not shown
notes: VHH-Fc heterodimer; also called BM-RT2831-#3
B3 showed a Kd (human FCγRIIIa receptor [1]) of 88.2 nM and a Ratio (human FCγRIIIa receptor [2]) of 1.

B4: bispecific antibody BM#21 against CD33 and CD123 (bispecific antibody, human IgG1)
chain 1: QVQLVESGGGSVQAGGSLRLSCAASGYTYSSTCIGWFRQAPGKDREGVAFAYTGGGVTYADSVKGRFTISQDNAKNTVHLIMNSLKPEDTAMYYCAAKTRGGCWAAAAFYNYWGQGTQVTVSSEPKSCDKTHTCPPCPAPELLGGPSVFLFPPKPKDTLMISRTPEVTCVVVDVSHEDPEVKFNWYVDGVEVHNAKTKPREEQYNSTYRVVSVLTVLHQDWLNGKEYKCKVSNKALPAPIEKTISKAKGQPREPQVYTLPPSRKELTKNQVSLTCLVKGFYPSDIAVEWESNGQPENNYKTTPPVLVSDGSFTLYSKLTVDKSRWQQGNVFSCSVMHEALHNHYTQKSLSLSPGK
chain 2: not shown
notes: VHH-Fc heterodimer; also called BM-RT2831-#21
In the case of B4, the Kd (human FCγRIIIa receptor [1]) is reported as 85.4 nM and the Ratio (human FCγRIIIa receptor [2]) is reported as 1.04.

B5: bispecific antibody BM#23 against CD33 and CD123 (bispecific antibody, human IgG1)
chain 1: QVQLVESGGGSVQAGGSLRLSCAASGYTYSSTCIGWFRQAPGKDREGVAFAYTGGGVTYADSVKGRFTISQDNAKNTVHLIMNSLKPEDTAMYYCAAKTRGGCWAAAAFYNYWGQGTQVTVSSEPKSCDKTHTCPPCPAPELLGGPSVFLFPPKPKDTLMISRTPEVTCVVVDVSHEDPEVKFNWYVDGVEVHNAKTKPREEQYNSTYRVVSVLTVLHQDWLNGKEYKCKVSNKALPAPIEKTISKAKGQPREPQVYTLPPSRDDLTKNQVSLTCLVKGFYPSDIAVEWESNGQPENNYKTTPPVLVSDGSFTLYSKLTVDKSRWQQGNVFSCSVMHEALHNHYTQKSLSLSPGK
chain 2: not shown
notes: VHH-Fc heterodimer; also called BM-RT2831-#23
B5 gave a Kd (human FCγRIIIa receptor [1]) of 82.1 nM and a Ratio (human FCγRIIIa receptor [2]) of 1.08.

B6: bispecific antibody BM#12 against CD33 and CD123 (bispecific antibody, human IgG1)
chain 1: QVQLVESGGGSVQAGGSLRLSCAASGYTYSSTCIGWFRQAPGKDREGVAFAYTGGGVTYADSVKGRFTISQDNAKNTVHLIMNSLKPEDTAMYYCAAKTRGGCWAAAAFYNYWGQGTQVTVSSEPKSCDKTHTCPPCPAPELLGGPSVFLFPPKPKDTLMISRTPEVTCVVVDVSHEDPEVKFNWYVDGVEVHNAKTKPREEQYNSTYRVVSVLTVLHQDWLNGKEYKCKVSNKALPAPIEKTISKAKGQPREPQVYTLPPSRDELTKNQVSLWCLVEGFYPSDIAVEWESNGQPENNYKTTPPVLDSDGSFFLYSDLTVDKSRWQQGNVFSCSVMHEALHNHYTQKSLSLSPGK
chain 2: not shown
notes: VHH-Fc heterodimer
B6 showed a Kd (human FCγRIIIa receptor [1]) of 53.8 nM and a Ratio (human FCγRIIIa receptor [2]) of 1.65.

B7: bispecific antibody BM#14 against CD33 and CD123 (bispecific antibody, human IgG1)
chain 1: QVQLVESGGGSVQAGGSLRLSCAASGYTYSSTCIGWFRQAPGKDREGVAFAYTGGGVTYADSVKGRFTISQDNAKNTVHLIMNSLKPEDTAMYYCAAKTRGGCWAAAAFYNYWGQGTQVTVSSEPKSCDKTHTCPPCPAPELLGGPSVFLFPPKPKDTLMISRTPEVTCVVVDVSHEDPEVKFNWYVDGVEVHNAKTKPREEQYNSTYRVVSVLTVLHQDWLNGKEYKCKVSNKALPAPIEKTISKAKGQPREPQVYTLPPSRDELTKNQVSLVCLVEGFYPSDIAVEWESNGQPENNYKTTPPVLDSDGSFFLYSDLTVDKSRWQQGNVFSCSVMHEALHNHYTQKSLSLSPGK
chain 2: QVQLVESGGGSVQAGGSLKLSCAASRFIFSRCGMGWFRQAPGKERELVSTISGDGTTFYADSVKGRFTISQHNAATTLYLQMNSLKLEDTAVYYCAADCYNRKYWGQGTQVTVSSEPKSCDKTHTCPPCPAPELLGGPSVFLFPPKPKDTLMISRTPEVTCVVVDVSHEDPEVKFNWYVDGVEVHNAKTKPREEQYNSTYRVVSVLTVLHQDWLNGKEYKCKVSNKALPAPIEKTISKAKGQPREPQVYTLPPSRDKLTKNQVSLTCLVKGFYPSDIAVEWESNGQPENNYKTTPPVLKSDGSFFLASKLTVDKSRWQQGNVFSCSVMHEALHNHYTQKSLSLSPGK
notes: VHH-Fc heterodimer
Binder B7 has a Kd (human FCγRIIIa receptor [1]) of 55.2 nM and a Ratio (human FCγRIIIa receptor [2]) of 1.61.

B8: bispecific antibody BM#24 against CD33 and CD123 (bispecific antibody, human IgG1)
chain 1: QVQLVESGGGSVQAGGSLRLSCAASGYTYSSTCIGWFRQAPGKDREGVAFAYTGGGVTYADSVKGRFTISQDNAKNTVHLIMNSLKPEDTAMYYCAAKTRGGCWAAAAFYNYWGQGTQVTVSSEPKSCDKTHTCPPCPAPELLGGPSVFLFPPKPKDTLMISRTPEVTCVVVDVSHEDPEVKFNWYVDGVEVHNAKTKPREEQYNSTYRVVSVLTVLHQDWLNGKEYKCKVSNKALPAPIEKTISKAKGQPREPQVYTLPPSRKDLTKNQVSLTCLVKGFYPSDIAVEWESNGQPENNYKTTPPVLDSDGSFFLASKLTVDKSRWQQGNVFSCSVMHEALHNHYTQKSLSLSPGK
chain 2: QVQLVESGGGSVQAGGSLKLSCAASRFIFSRCGMGWFRQAPGKERELVSTISGDGTTFYADSVKGRFTISQHNAATTLYLQMNSLKLEDTAVYYCAADCYNRKYWGQGTQVTVSSEPKSCDKTHTCPPCPAPELLGGPSVFLFPPKPKDTLMISRTPEVTCVVVDVSHEDPEVKFNWYVDGVEVHNAKTKPREEQYNSTYRVVSVLTVLHQDWLNGKEYKCKVSNKALPAPIEKTISKAKGQPREPQVYTLPPSRDELTKNQVSLTCLVYGFYPSDIAVEWESNGQPENNYKTTPPVLDSDGSFFLYSVLTVDKSRWQQGNVFSCSVMHEALHNHYTQESLSLSPGK
notes: VHH-Fc heterodimer; also called BM-RT2831-#24
B8 was tested, and the Kd (human FCγRIIIa receptor [1]) was 83.3 nM and the Ratio (human FCγRIIIa receptor [2]) was 1.06.

B9: bispecific antibody BM#22 against CD33 and CD123 (bispecific antibody, human IgG1)
chain 1: QVQLVESGGGSVQAGGSLRLSCAASGYTYSSTCIGWFRQAPGKDREGVAFAYTGGGVTYADSVKGRFTISQDNAKNTVHLIMNSLKPEDTAMYYCAAKTRGGCWAAAAFYNYWGQGTQVTVSSEPKSCDKTHTCPPCPAPELLGGPSVFLFPPKPKDTLMISRTPEVTCVVVDVSHEDPEVKFNWYVDGVEVHNAKTKPREEQYNSTYRVVSVLTVLHQDWLNGKEYKCKVSNKALPAPIEKTISKAKGQPREPQVYTLPPSRDKLTKNQVSLTCLVKGFYPSDIAVEWESNGQPENNYKTTPPVLVSDGSFTLYSKLTVDKSRWQQGNVFSCSVMHEALHNHYTQKSLSLSPGK
chain 2: not shown
notes: VHH-Fc heterodimer; also called BM-RT2831-#22
For B9, the Kd (human FCγRIIIa receptor [1]) was 86.3 nM and the Ratio (human FCγRIIIa receptor [2]) was 1.03.

B10: bispecific antibody BM#13 against CD33 and CD123 (bispecific antibody, human IgG1)
chain 1: not shown
chain 2: QVQLVESGGGSVQAGGSLKLSCAASRFIFSRCGMGWFRQAPGKERELVSTISGDGTTFYADSVKGRFTISQHNAATTLYLQMNSLKLEDTAVYYCAADCYNRKYWGQGTQVTVSSEPKSCDKTHTCPPCPAPELLGGPSVFLFPPKPKDTLMISRTPEVTCVVVDVSHEDPEVKFNWYVDGVEVHNAKTKPREEQYNSTYRVVSVLTVLHQDWLNGKEYKCKVSNKALPAPIEKTISKAKGQPREPQVYTLPPSRDELTKNQVSLTCLVKGFYPSDIAVEWESNGQPENNYKTTPPVLVSDGSFTLASKLTVDKSRWQQGNVFSCSVMHEALHNHYTQKSLSLSPGK
notes: VHH-Fc heterodimer
B10 showed a Kd (human FCγRIIIa receptor [1]) of 62.5 nM and a Ratio (human FCγRIIIa receptor [2]) of 1.42.

B11: bispecific antibody BM#2 against CD33 and CD123 (bispecific antibody, human IgG1)
chain 1: QVQLVESGGGSVQAGGSLRLSCAASGYTYSSTCIGWFRQAPGKDREGVAFAYTGGGVTYADSVKGRFTISQDNAKNTVHLIMNSLKPEDTAMYYCAAKTRGGCWAAAAFYNYWGQGTQVTVSSEPKSCDKTHTCPPCPAPELLGGPSVFLFPPKPKDTLMISRTPEVTCVVVDVSHEDPEVKFNWYVDGVEVHNAKTKPREEQYNSTYRVVSVLTVLHQDWLNGKEYKCKVSNKALPAPIEKTISKAKGQPREPQVYTLPPSRDKLTKNQVSLWCLVKGFYPSDIAVEWESNGQPENNYKTTPPVLKSDGSFFLYSKLTVDKSRWQQGNVFSCSVMHEALHNHYTQKSLSLSPGK
chain 2: not shown
notes: VHH-Fc heterodimer
B11 gave a Kd (human FCγRIIIa receptor [1]) of 79.1 nM and a Ratio (human FCγRIIIa receptor [2]) of 1.12.
